Measurements: patent publication US9993529B2, “Stable formulations of a hyaluronan-degrading enzyme” (Halozyme, Inc., priority 2011, dated 2018)
Read-outs that look alike come from different tables or passages of the source.

How the values were obtained:
[1] = Dynamic light scattering, particle size and apparent melting temperature of rHuPH20; assay type: physicochemical; parameters: unit not given here
rHuPH20 = molecular target: T1, rHuPH20 (Homo sapiens, UniProt P38567); conditions: for retained % of the original activity / rHuPH20 activity (initial 600 U/mL): 75 mM NaCl
T1 sequence (P38567 36-482): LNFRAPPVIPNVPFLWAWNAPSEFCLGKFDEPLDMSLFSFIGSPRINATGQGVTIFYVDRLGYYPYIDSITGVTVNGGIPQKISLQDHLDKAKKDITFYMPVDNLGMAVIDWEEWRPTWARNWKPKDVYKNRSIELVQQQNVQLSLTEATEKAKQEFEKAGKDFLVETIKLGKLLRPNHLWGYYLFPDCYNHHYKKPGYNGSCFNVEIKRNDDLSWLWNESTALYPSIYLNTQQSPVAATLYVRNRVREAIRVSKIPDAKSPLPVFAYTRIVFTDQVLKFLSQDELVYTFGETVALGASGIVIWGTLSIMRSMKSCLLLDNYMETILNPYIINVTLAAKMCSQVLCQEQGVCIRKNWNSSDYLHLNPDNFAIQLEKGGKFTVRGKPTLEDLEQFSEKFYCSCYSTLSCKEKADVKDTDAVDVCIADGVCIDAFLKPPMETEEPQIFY
Experimental: The activity of a hyaluronan degrading enzyme can be assessed using methods well known in the art. […] A Hyaluronidase Reference Standard (USP) or National Formulary (NF) Standard Hyaluronidase solution can be used in an assay to ascertain the activity, in units, of any hyaluronidase. In one example, activity is measured using a microturbidity assay. […] The turbidity of the resulting sample is measured at 640 nm after an additional development period.

[2] = Differential scanning calorimetry, Tm of rHuPH20; assay type: physicochemical; conditions: DSC, presence of […] m-cresol
[3] = 1 week 30° C., pH 7.1, 10 mg/mL HA

retained % of the original activity (rHuPH20; 1 week 30° C., pH 7.1, 1 mg/mL HA): 57%
% of the original rHuPH20 remained (rHuPH20; 1 week 30° C., pH 7.1, 5.5 mg/mL HA, 100 mM NaCl): 68%
rHuPH20 activity (initial 600 U/mL) (rHuPH20; [3]): 510 U/mL
retained % of the original activity (rHuPH20; [3]): 85%
rHuPH20 activity (initial 600 U/mL) (rHuPH20; rHuPH20/insulin, 1 week 30° C., pH 7.1, 1 mg/mL HA): 341 U/mL
B1: rHuPH20: secreted soluble recombinant human PH20 hyaluronidase expressed in CHO cells (nucleic acid encoding amino acids 36-482 of SEQ ID NO:1) (protein, listed as Homo sapiens)
chain: T1 sequence (P38567 36-482)
modifications: precursor human PH20
Average particle size (DLS) ([1]; 20 ° C.): 9.48
Average particle size (DLS) ([1]; 22 ° C.): 9.19
Average particle size (DLS) ([1]; 24 ° C.): 9.89
Average particle size (DLS) ([1]; 26 ° C.): 9.96
Average particle size (DLS) ([1]; 28 ° C.): 9.27
Average particle size (DLS) ([1]; 30 ° C.): 8.94
Average particle size (DLS) ([1]; 32 ° C.): 8.96
Average particle size (DLS) ([1]; 34 ° C.): 9.42
Average particle size (DLS) ([1]; 36 ° C.): 9.28
Average particle size (DLS) ([1]; 38 ° C.): 8.91
Average particle size (DLS) ([1]; 40 ° C.): 9.39
Average particle size (DLS) ([1]; 42 ° C.): 9.72
Average particle size (DLS) ([1]; 44 ° C.): 11.36
Average particle size (DLS) ([1]; 46 ° C.): 13.08
Average particle size (DLS) ([1]; 48 ° C.): 21.35
Average particle size (DLS) ([1]; 50 ° C.): 22.74
Average particle size (DLS) ([1]; 52 ° C.): 28.50
Average particle size (DLS) ([1]; 54 ° C.): 32.95
Average particle size (DLS) ([1]; 56 ° C.): 37.01
rHuPH20 enzymatic activity (rHuPH20; 1 mM methionine, 30° C., one month): 525 U/mL
rHuPH20 enzymatic activity (rHuPH20; 20 mM methionine, 30° C., one month): 522 U/mL
rHuPH20 enzymatic activity (rHuPH20; 2-8° C., 5 Months, pH 7.0, 50 mM NaCl): 494.4796
rHuPH20 enzymatic activity (rHuPH20; 2-8° C., 5 Months, pH 7.0, 80 mM NaCl): 575.3274
rHuPH20 enzymatic activity (rHuPH20; 2-8° C., 5 Months, pH 7.0, 110 mM NaCl): 615.3546
rHuPH20 enzymatic activity (rHuPH20; 2-8° C., 5 Months, pH 7.0, 140 mM NaCl): 582.4274
rHuPH20 enzymatic activity (rHuPH20; 2-8° C., 5 Months, pH 7.2, 50 mM NaCl): 481.6035
rHuPH20 enzymatic activity (rHuPH20; 2-8° C., 5 Months, pH 7.2, 80 mM NaCl): 566.2521
rHuPH20 enzymatic activity (rHuPH20; 2-8° C., 5 Months, pH 7.2, 110 mM NaCl): 593.2027
rHuPH20 enzymatic activity (rHuPH20; 2-8° C., 5 Months, pH 7.2, 140 mM NaCl): 585.9948
rHuPH20 enzymatic activity (rHuPH20; 2-8° C., 5 Months, pH 7.4, 50 mM NaCl): 526.6628
rHuPH20 enzymatic activity (rHuPH20; 2-8° C., 5 Months, pH 7.4, 80 mM NaCl): 564.7769
rHuPH20 enzymatic activity (rHuPH20; 2-8° C., 5 Months, pH 7.4, 110 mM NaCl): 618.3856
rHuPH20 enzymatic activity (rHuPH20; 2-8° C., 5 Months, pH 7.4, 140 mM NaCl): 585.9813
rHuPH20 enzymatic activity (rHuPH20; 2-8° C., 5 Months, pH 7.6, 80 mM NaCl): 546.4209
rHuPH20 enzymatic activity (rHuPH20; 2-8° C., 5 Months, pH 7.6, 110 mM NaCl): 581.6326
rHuPH20 enzymatic activity (rHuPH20; 2-8° C., 5 Months, pH 7.6, 140 mM NaCl): 594.6197
rHuPH20 enzymatic activity (rHuPH20; 2-8° C., 9 Months, pH 7.0, 50 mM NaCl): 436.5115
rHuPH20 enzymatic activity (rHuPH20; 2-8° C., 9 Months, pH 7.0, 80 mM NaCl): 513.9692
rHuPH20 enzymatic activity (rHuPH20; 2-8° C., 9 Months, pH 7.0, 110 mM NaCl): 551.0218
rHuPH20 enzymatic activity (rHuPH20; 2-8° C., 9 Months, pH 7.0, 140 mM NaCl): 554.6513
rHuPH20 enzymatic activity (rHuPH20; 2-8° C., 9 Months, pH 7.2, 50 mM NaCl): 451.8324
rHuPH20 enzymatic activity (rHuPH20; 2-8° C., 9 Months, pH 7.2, 80 mM NaCl): 518.0740
rHuPH20 enzymatic activity (rHuPH20; 2-8° C., 9 Months, pH 7.2, 110 mM NaCl): 553.1847
rHuPH20 enzymatic activity (rHuPH20; 2-8° C., 9 Months, pH 7.2, 140 mM NaCl): 536.7846
rHuPH20 enzymatic activity (rHuPH20; 2-8° C., 9 Months, pH 7.4, 50 mM NaCl): 466.1871
rHuPH20 enzymatic activity (rHuPH20; 2-8° C., 9 Months, pH 7.4, 80 mM NaCl): 509.9032
rHuPH20 enzymatic activity (rHuPH20; 2-8° C., 9 Months, pH 7.4, 110 mM NaCl): 560.4847
rHuPH20 enzymatic activity (rHuPH20; 2-8° C., 9 Months, pH 7.4, 140 mM NaCl): 542.4534
rHuPH20 enzymatic activity (rHuPH20; 2-8° C., 9 Months, pH 7.6, 50 mM NaCl): 464.8964
rHuPH20 enzymatic activity (rHuPH20; 2-8° C., 9 Months, pH 7.6, 80 mM NaCl): 515.3382
rHuPH20 enzymatic activity (rHuPH20; 2-8° C., 9 Months, pH 7.6, 110 mM NaCl): 531.9202
rHuPH20 enzymatic activity (rHuPH20; 2-8° C., 9 Months, pH 7.6, 140 mM NaCl): 523.5385
rHuPH20 enzymatic activity (rHuPH20; insulin/rHuPH20 follow up study, starting): 650 U/mL
rHuPH20 enzymatic activity (rHuPH20; regular insulin/rHuPH20, 2-8° C., 5 Months, pH 7.6, 50 mM NaCl): 508.0571
reduction of Tm of rHuPH20 [2]: about 2 °C
